Data taken from the supplement of paper PMC11246515.
± gives the standard deviation of the averaged measurements.

Experiment: total protein half-life in vivo (active degradation + dilution); higher = more stable protein
[1] = E. coli NCM3722 delta-clpP delta-lon delta-hslV, growth: N-lim chemostat, doubling time 6 h
[2] = wild type E. coli NCM3722, growth: C-lim chemostat, doubling time 3 h
[3] = wild type E. coli NCM3722, growth: C-lim chemostat, doubling time 6 h
[4] = wild type E. coli NCM3722, growth: C-lim chemostat, doubling time 12 h
[5] = E. coli NCM3722 delta-smpB, growth: N-lim chemostat, doubling time 6 h
[6] = wild type E. coli NCM3722, growth: P-lim chemostat, doubling time 12 h
[7] = E. coli NCM3722 delta-clpP, growth: N-lim chemostat, doubling time 6 h
[8] = E. coli NCM3722 delta-hslV, growth: N-lim chemostat, doubling time 6 h
[9] = E. coli NCM3722 delta-lon, growth: N-lim chemostat, doubling time 6 h
[10] = wild type E. coli NCM3722, growth: N-lim chemostat, doubling time 6 h
[11] = wild type E. coli NCM3722, growth: N-lim chemostat, doubling time 12 h
[12] = wild type E. coli NCM3722, growth: P-lim chemostat, doubling time 6 h

| Sequence | total protein half-life in vivo [1] [h] | total protein half-life in vivo [2] [h] | total protein half-life in vivo [3] [h] | total protein half-life in vivo [4] [h] | total protein half-life in vivo [5] [h] | total protein half-life in vivo [6] [h] | total protein half-life in vivo [7] [h] | total protein half-life in vivo [8] [h] | total protein half-life in vivo [9] [h] | total protein half-life in vivo [10] [h] | total protein half-life in vivo [11] [h] | total protein half-life in vivo [12] [h] |
| --- | --- | --- | --- | --- | --- | --- | --- | --- | --- | --- | --- | --- |
| MKTGSEFHVGIVGLGSMGMGAALSYVRAGLSTWGADLNSNACATLKEAGACGVSDNAATFAEKLDALLVLVVNAAQVKQVLFGETGVAQHLKPGTAVMVSSTIASADAQEIATALAGFDLEMLDAPVSGGAVKAANGEMTVMASGSDIAFERLAPVLEAVAGKVYRIGAEPGLGSTVKIIHQLLAGVHIAAGAEAMALAARAGIPLDVMYDVVTNAAGNSWMFENRMRHVVDGDYTPHSAVDIFVKDLGLVADTAKALHFPLPLASTALNMFTSASNAGYGKEDDSAVIKIFSGITLPGAKS | 5.94 | 0.261 | 0.509 | 1.69 ± 1.5 |  |  |  |  |  |  |  |  |
| MKTIFTVGAVVLATCLLSGCVNEQKVNQLASNVQTLNAKIARLEQDMKALRPQIYAAKSEANRANTRLDAQDYFDCLRCLRMYAE | 7.01 |  |  | 6.54 | 5.17 | > 16 |  |  |  |  |  |  |
| MKTIHDIRRSNARKLRDGVGGNSSFATMIDREPTQTSRFMGDGATKNIGDSMARHIEKCFDLPVGWLDQEHQTTNITKKPDVSITNKQITLVPVISWVQAGAWKEVGYSEVDLSTAETYPCPVPCGEMTYILRVIGDSMIDEYRPGDMIFVDPEVPACHGDDVIALMHDTGETTFKRLIEDGTQRYLKALNPNWPEPYIKINGNCSIIGTVIFSGKPRRYKIKA | 5.24 ± 0.42 |  | 6.8 ± 0.23 | 9.86 ± 0.61 | 5.12 ± 0.24 | 12.7 ± 2 | 5.02 ± 0.3 | 4.84 ± 0.77 | 4.886 ± 0.017 | 5.26 ± 0.76 | 7.94 ± 0.96 | 4.81 ± 0.62 |
| MKTLFSRLITVIACFFIFSAAWFCLWSISLHLVERPDMAVLLFPFGLRLGLMLQCPRGYWPVLLGAEWLLIYWLTQAVGLTHFPLLMIGSLLTLLPVALISRYRHQRDWRTLLLQGAALTAAALLQSLPWLWHGKESWNALLLTLTGGLTLAPICLVFWHYLANNTWLPLGPSLVSQPINWRGRHLVWYLLLFVISLWLQLGLPDELSRFTPFCLALPIIALAWHYGWQGALIATLMNAIALIASQTWRDHPVDLLLSLLVQSLTGLLLGAGIQRLRELNQSLQKELARNQHLAERLLETEESVRRDVARELHDDIGQTITAIRTQAGIVQRLAADNASVKQSGQLIEQLSLGVYDAVRRLLGRLRPRQLDDLTLEQAIRSLMREMELEGRGIVSHLEWRIDESALSENQRVTLFRVCQEGLNNIVKHADASAVTLQGWQQDERLMLVIEDDGSGLPPGSGQQGFGLTGMRERVTALGGTLHISCLHGTRVSVSLPQRYV | 5.18 ± 1.4 | 2.75 ± 0.13 | 4.79 ± 0.62 | 10 ± 2.2 | 5.72 ± 0.14 |  | 5.44 ± 0.69 | 6.91 | 6.14 ± 0.34 | 6.09 ± 0.24 |  | 6.19 |
| MKTLGEFIVEKQHEFSHATGELTALLSAIKLGAKIIHRDINKAGLVDILGASGAENVQGEVQQKLDLFANEKLKAALKARDIVAGIASEEEDEIVVFEGCEHAKYVVLMDPLDGSSNIDVNVSVGTIFSIYRRVTPVGTPVTEEDFLQPGNKQVAAGYVVYGSSTMLVYTTGCGVHAFTYDPSLGVFCLCQERMRFPEKGKTYSINEGNYIKFPNGVKKYIKFCQEEDKSTNRPYTSRYIGSLVADFHRNLLKGGIYLYPSTASHPDGKLRLLYECNPMAFLAEQAGGKASDGKERILDIIPETLHQRRSFFVGNDHMVEDVERFIREFPDA [P0A993] | 4.22 ± 0.099 | 2.93 ± 0.38 | 5.02 ± 0.3 | 8.6 ± 0.59 | 3.21 ± 0.12 | 10.6 ± 0.24 | 3.02 ± 0.088 | 3.76 ± 0.66 | 3.84 ± 0.51 | 3.19 ± 0.06 | 4.68 ± 0.09 | 5.796 ± 0.011 |
| MKTLIARHKAGEHIGICSVCSAHPLVIEAALAFDRNSTRKVLIEATSNQVNQFGGYTGMTPADFREFVFTIADKVGFARERIILGGDHLGPNCWQQENADAAMEKSVELVKEYVRAGFSKIHLDASMSCAGDPIPLAPETVAERAAVLCFAAESVATDCQREQLSYVIGTEVPVPGGEASAIQSVHITHVEDAANTLRTHQKAFIARGLTEALTRVIAIVVQPGVEFDHSNIIHYQPQEAQPLAQWIENTRMVYEAHSTDYQTRTAYWELVRDHFAILKVGPALTFALREAIFALAQIEQELIAPENRSGCLAVIEEVMLDEPQYWKKYYRTGFNDSLLDIRYSLSDRIRYYWPHSRIKNSVETMMVNLEGVDIPLGMISQYLPKQFERIQSGELSAIPHQLIMDKIYDVLRAYRYGCAE [P0C8J8] | 5.59 |  | 2.97 |  |  |  |  |  |  | > 8 |  |  |
| MKTLILFSTRDGQTREIASYLASELKELGIQADVANVHRIEEPQWENYDRVVIGASIRYGHYHSAFQEFVKKHATRLNSMPSAFYSVNLVARKPEKRTPQTNSYARKFLMNSQWRPDRCAVIAGALRYPRYRWYDRFMIKLIMKMSGGETDTRKEVVYTDWEQVANFAREIAHLTDKPTLK [P0ACB4] | 6.5 ± 0.98 | 3.05 ± 0.23 | 5.733 ± 0.054 | 9.62 ± 0.39 | 5.74 ± 0.11 | 11.9 ± 0.72 | 6.1 ± 0.4 | 6.54 ± 0.68 | 6.2 ± 0.14 | 5.4517 ± 0.0046 | 11.18 ± 0.03 | 5.69 ± 0.12 |
| MKTNIKVFTSTGELTTLGRELGKGGEGAVYDIEEFVDSVAKIYHTPPPALKQDKLAFMAATADAQLLNYVAWPQATLHGGRGGKVIGFMMPKVSGKEPIHMIYSPAHRRQSYPHCAWDFLLYVARNIASSFATVHEHGHVVGDVNQNSFMVGRDSKVVLIDSDSFQINANGTLHLCEVGVSHFTPPELQTLPSFVGFERTENHDNFGLALLIFHVLFGGRHPYSGVPLISDAGNALETDITHFRYAYASDNQRRGLKPPPRSIPLSMLPSDVEAMFQQAFTESGVATGRPTAKAWVAALDSLRQQLKKCIVSAMHVYPAHLTDCPWCALDNQGVIYFIDLGEEVITTGGNFVLAKVWAMVMASVAPPALQLPLPDHFQPTGRPLPLGLLRREYIILLEIALSALSLLLCGLQAEPRYIILVPVLAAIWIIGSLTSKAYKAEVQQRREAFNRAKMDYDHLVRQIQQVGGLEGFIAKRTMLEKMKDEILGLPEEEKRALAALHDTARERQKQKFLEGFFIDVASIPGVGPARKAALRSFGIETAADVTRRGVKQVKGFGDHLTQAVIDWKASCERRFVFRPNEAITPADRQAVMAKMTAKRHRLESALTVGATELQRFRLHAPARTMPLMEPLRQAAEKLAQAQADLSRC | 4.54 |  |  |  |  |  | 4.86 |  |  |  |  |  |
| MKTRIHVVQGDITKLAVDVIVNAANPSLMGGGGVDGAIHRAAGPALLDACLKVRQQQGDCPTGHAVITLAGDLPAKAVVHTVGPVWRGGEQNEDQLLQDAYLNSLRLVAANSYTSVAFPAISTGVYGYPRAAAAEIAVKTVSEFITRHALPEQVYFVCYDEENAHLYERLLTQQGDE [P0A8D6] |  |  | 5.89 ± 0.66 | 9.58 ± 0.72 | 3.89 ± 0.28 | 12 ± 0.23 | 4.32 ± 0.98 | 4.02 ± 0.17 | 4.294 ± 0.033 | 4.63 ± 0.32 | 6.81 ± 0.32 | 5.95 ± 0.57 |
| MKTSRLPIAIQQAVMRRLREKLAQANLKLGRNYPEPKLSYTQRGTSAGTAWLESYEIRLNPVLLLENSEAFIEEVVPHELAHLLVWKHFGRVAPHGKEWKWMMENVLGVPARRTHQFELQSVRRNTFPYRCKCQEHQLTVRRHNRVVRGEAVYRCVHCGEQLVAK | 4.81 ± 0.12 |  |  | 5.52 |  |  |  |  |  |  |  |  |
| MKVDIDTSDKLYADAWLGFKGTDWKNEINVRDFIQHNYTPYEGDESFLAEATPATTELWEKVMEGIRIENATHAPVDFDTNIATTITAHDAGYINQPLEKIVGLQTDAPLKRALHPFGGINMIKSSFHAYGREMDSEFEYLFTDLRKTHNQGVFDVYSPDMLRCRKSGVLTGLPDGYGRGRIIGDYRRVALYGISYLVRERELQFADLQSRLEKGEDLEATIRLREELAEHRHALLQIQEMAAKYGFDISRPAQNAQEAVQWLYFAYLAAVKSQNGGAMSLGRTASFLDIYIERDFKAGVLNEQQAQELIDHFIMKIRMVRFLRTPEFDSLFSGDPIWATEVIGGMGLDGRTLVTKNSFRYLHTLHTMGPAPEPNLTILWSEELPIAFKKYAAQVSIVTSSLQYENDDLMRTDFNSDDYAIACCVSPMVIGKQMQFFGARANLAKTLLYAINGGVDEKLKIQVGPKTAPLMDDVLDYDKVMDSLDHFMDWLAVQYISALNIIHYMHDKYSYEASLMALHDRDVYRTMACGIAGLSVATDSLSAIKYARVKPIRDENGLAVDFEIDGEYPQYGNNDERVDSIACDLVERFMKKIKALPTYRNAVPTQSILTITSNVVYGQKTGNTPDGRRAGTPFAPGANPMHGRDRKGAVASLTSVAKLPFTYAKDGISYTFSIVPAALGKEDPVRKTNLVGLLDGYFHHEADVEGGQHLNVNVMNREMLLDAIEHPEKYPNLTIRVSGYAVRFNALTREQQQDVISRTFTQAL | 4.15 | 2.12 ± 0.2 | 2.56 ± 0.43 | 3.63 ± 1.1 | 1.87 ± 0.4 | 6.82 ± 0.17 |  |  |  | 1.88 | 3.13 | 3.24 |
